Human Treg Potency EC50 (STAT5 phosphorylation) and Human Treg Potency reduction data for three molecules are collected here from patent US20250000946A1.

B1: W3XX115-T3U0.E44-1.uIgG4V322 (Fc fusion)
chain: APTSSSTKKTQLQLEHLLLDLQMILNGINNYKNPKLTRMLTAKFAMPKKATELKHLQCLEEELKPLEEVLNGAQSKNFHLRPRDLISNINVIVLELKGSETTFMCEYADETATIVEFLNRWITFCQSIISTLTESKYGPPCPPCPAPEAAGGPSVFLFPPKPKDTLMISRTPEVTCVVVDVSQEDPEVQFNWYVDGVEVHNAKTKPREEQFNSTYRVVSVLTVLHQDWLNGKEYKCKVSNKGLPSSIEKTISKAKGQPREPQVYTLPPCQEEMTKNQVSLWCLVKGFYPSDIAVEWESNGQPENNYKTTPPVLDSDGSFFLYSRLTVDKSRWQEGNVFSCSVMHEALHNHYTQKSLSLSLG
heavy: EIQLQQSGPELVKPGASVKVSCKASGYSFTDYNMYWVKQSHGESLEWIGYIDPYNGGTRYNQKFKGKATLTVDKSSSTAFMHLNSLTSEDSAVYYCARNGHWDGAWFAYWGQGTLVTVSAASTKGPSVFPLAPCSRSTSESTAALGCLVKDYFPEPVTVSWNSGALTSGVHTFPAVLQSSGLYSLSSVVTVPSSSLGTKTYTCNVDHKPSNTKVDKRVESKYGPPCPPCPAPEAAGGPSVFLFPPKPKDTLMISRTPEVTCVVVDVSQEDPEVQFNWYVDGVEVHNAKTKPREEQFNSTYRVVSVLTVLHQDWLNGKEYKCKVSNKGLPSSIEKTISKAKGQPREPQVCTLPPSQEEMTKNQVSLSCAVKGFYPSDIAVEWESNGQPENNYKTTPPVLDSDGSFFLVSRLTVDKSRWQEGNVFSCSVMHEALHNHYTQKSLSLSLG
light: DIQMNQSPSSLSASLGDTITITCHASQNINVWLSWYQQKPGNIPKLLIYKASNLHTGVPSRFSGSRSGTGFTLTISSLQPEDIATYYCHQGQSYPFTFGSGTKLEIKRTVAAPSVFIFPPSDEQLKSGTASVVCLLNNFYPREAKVQWKVDNALQSGNSQESVTEQDSKDSTYSLSSTLTLSKADYEKHKVYACEVTHQGLSSPVTKSFNRGEC
B2: W3XX115-T2U0.E44-32.uIgG4V322 (Fc fusion)
chain: APTSSSTKKTQLQLEHLLLDLQMILNGINNYKNPKLTRMLTIKFYMPKKATELKHLQCLEEELKPLEEVLNLAQSKNFHLRPRDLISNINVIVLELKGSETTFMCEYADETATIVEFLNRWITFCQSILESKYGPPCPPCPAPEAAGGPSVFLFPPKPKDTLMISRTPEVTCVVVDVSQEDPEVQFNWYVDGVEVHNAKTKPREEQFNSTYRVVSVLTVLHQDWLNGKEYKCKVSNKGLPSSIEKTISKAKGQPREPQVYTLPPCQEEMTKNQVSLWCLVKGFYPSDIAVEWESNGQPENNYKTTPPVLDSDGSFFLYSRLTVDKSRWQEGNVFSCSVMHEALHNHYTQKSLSLSLG
heavy: EIQLQQSGPELVKPGASVKVSCKASGYSFTDYNMYWVKQSHGESLEWIGYIDPYNGGTRYNQKFKGKATLTVDKSSSTAFMHLNSLTSEDSAVYYCARNGHWDGAWFAYWGQGTLVTVSAASTKGPSVFPLAPCSRSTSESTAALGCLVKDYFPEPVTVSWNSGALTSGVHTFPAVLQSSGLYSLSSVVTVPSSSLGTKTYTCNVDHKPSNTKVDKRVESKYGPPCPPCPAPEAAGGPSVFLFPPKPKDTLMISRTPEVTCVVVDVSQEDPEVQFNWYVDGVEVHNAKTKPREEQFNSTYRVVSVLTVLHQDWLNGKEYKCKVSNKGLPSSIEKTISKAKGQPREPQVCTLPPSQEEMTKNQVSLSCAVKGFYPSDIAVEWESNGQPENNYKTTPPVLDSDGSFFLVSRLTVDKSRWQEGNVFSCSVMHEALHNHYTQKSLSLSLG
light: DIQMNQSPSSLSASLGDTITITCHASQNINVWLSWYQQKPGNIPKLLIYKASNLHTGVPSRFSGSRSGTGFTLTISSLQPEDIATYYCHQGQSYPFTFGSGTKLEIKRTVAAPSVFIFPPSDEQLKSGTASVVCLLNNFYPREAKVQWKVDNALQSGNSQESVTEQDSKDSTYSLSSTLTLSKADYEKHKVYACEVTHQGLSSPVTKSFNRGEC
B3: W3XX115-T2U0.E44-31.uIgG4V322 (Fc fusion)
chain: APTSSSTKKTQLQLEHLLLDLQMILNGINNYKNPKLTRMLTVKFYMPKKATELKHLQCLEEELKPLEEVLNLAQSKNFHLRPRDLISNINVIVLELKGSETTFMCEYADETATIVEFLNRWITFCQSILESKYGPPCPPCPAPEAAGGPSVFLFPPKPKDTLMISRTPEVTCVVVDVSQEDPEVQFNWYVDGVEVHNAKTKPREEQFNSTYRVVSVLTVLHQDWLNGKEYKCKVSNKGLPSSIEKTISKAKGQPREPQVYTLPPCQEEMTKNQVSLWCLVKGFYPSDIAVEWESNGQPENNYKTTPPVLDSDGSFFLYSRLTVDKSRWQEGNVFSCSVMHEALHNHYTQKSLSLSLG
heavy: EIQLQQSGPELVKPGASVKVSCKASGYSFTDYNMYWVKQSHGESLEWIGYIDPYNGGTRYNQKFKGKATLTVDKSSSTAFMHLNSLTSEDSAVYYCARNGHWDGAWFAYWGQGTLVTVSAASTKGPSVFPLAPCSRSTSESTAALGCLVKDYFPEPVTVSWNSGALTSGVHTFPAVLQSSGLYSLSSVVTVPSSSLGTKTYTCNVDHKPSNTKVDKRVESKYGPPCPPCPAPEAAGGPSVFLFPPKPKDTLMISRTPEVTCVVVDVSQEDPEVQFNWYVDGVEVHNAKTKPREEQFNSTYRVVSVLTVLHQDWLNGKEYKCKVSNKGLPSSIEKTISKAKGQPREPQVCTLPPSQEEMTKNQVSLSCAVKGFYPSDIAVEWESNGQPENNYKTTPPVLDSDGSFFLVSRLTVDKSRWQEGNVFSCSVMHEALHNHYTQKSLSLSLG
light: DIQMNQSPSSLSASLGDTITITCHASQNINVWLSWYQQKPGNIPKLLIYKASNLHTGVPSRFSGSRSGTGFTLTISSLQPEDIATYYCHQGQSYPFTFGSGTKLEIKRTVAAPSVFIFPPSDEQLKSGTASVVCLLNNFYPREAKVQWKVDNALQSGNSQESVTEQDSKDSTYSLSSTLTLSKADYEKHKVYACEVTHQGLSSPVTKSFNRGEC

For the assay, the target named is Human IL-2Rα/β/γ complex (high affinity IL-2 receptor) (human) (UniProt P01589). The assay can be described thus: cell-based or functional assay.
Sequence of Human IL-2Rα/β/γ complex (high affinity IL-2 receptor) (human) (P01589 22-272, chain 1 of 3): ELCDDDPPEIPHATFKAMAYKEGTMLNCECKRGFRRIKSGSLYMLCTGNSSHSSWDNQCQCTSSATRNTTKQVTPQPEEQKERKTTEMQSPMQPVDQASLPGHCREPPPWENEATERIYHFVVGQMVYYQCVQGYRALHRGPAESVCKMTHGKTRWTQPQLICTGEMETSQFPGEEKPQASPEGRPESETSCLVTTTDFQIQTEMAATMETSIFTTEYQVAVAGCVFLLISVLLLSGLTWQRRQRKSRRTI
Sequence of Human IL-2Rα/β/γ complex (high affinity IL-2 receptor) (human) (P14784 27-551, chain 2 of 3, further chain): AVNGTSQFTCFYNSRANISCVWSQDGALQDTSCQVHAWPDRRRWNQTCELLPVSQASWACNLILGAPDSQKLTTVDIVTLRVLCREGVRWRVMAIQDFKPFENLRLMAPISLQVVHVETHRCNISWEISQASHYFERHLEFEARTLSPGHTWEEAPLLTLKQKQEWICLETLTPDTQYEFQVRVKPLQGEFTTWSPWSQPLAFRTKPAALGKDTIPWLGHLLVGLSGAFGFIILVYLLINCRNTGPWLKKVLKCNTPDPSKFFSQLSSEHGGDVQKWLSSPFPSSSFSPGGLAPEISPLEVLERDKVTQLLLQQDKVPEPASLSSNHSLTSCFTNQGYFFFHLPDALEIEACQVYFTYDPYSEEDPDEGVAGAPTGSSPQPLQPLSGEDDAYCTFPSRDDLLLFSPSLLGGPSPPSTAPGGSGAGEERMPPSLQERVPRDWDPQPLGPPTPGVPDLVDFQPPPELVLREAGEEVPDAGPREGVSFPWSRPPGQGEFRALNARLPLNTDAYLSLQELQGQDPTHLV
Sequence of Human IL-2Rα/β/γ complex (high affinity IL-2 receptor) (human) (P31785 23-369, chain 3 of 3, further chain): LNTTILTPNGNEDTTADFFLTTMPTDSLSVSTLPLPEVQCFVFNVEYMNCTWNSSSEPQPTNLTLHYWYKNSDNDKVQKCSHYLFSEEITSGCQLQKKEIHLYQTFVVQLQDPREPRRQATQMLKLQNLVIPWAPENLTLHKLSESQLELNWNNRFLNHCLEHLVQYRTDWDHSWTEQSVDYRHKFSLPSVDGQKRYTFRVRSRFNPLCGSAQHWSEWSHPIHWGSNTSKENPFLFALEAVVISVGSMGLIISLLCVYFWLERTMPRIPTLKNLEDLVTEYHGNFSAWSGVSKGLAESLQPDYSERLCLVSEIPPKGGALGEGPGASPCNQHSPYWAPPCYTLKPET
Consider B1, for which the Human Treg Potency EC50 (STAT5 phosphorylation) came out at 7.78 nM and the Human Treg Potency reduction came out at 5560 fold.
On the same counts, the results for B2 are 40.9 nM and 29200 fold.
On the same counts, the results for B3 are 48.8 nM and 34900 fold.
